In article PMC4153296, “Mutant Taq DNA polymerases with improved elongation ability as a useful reagent for genetic engineering”:

Tests used:
[1] = target: chimeric Taq 1-1 (Thermus aquaticus / environmental DNA chimera) (UniProt P19821); assay: EMSA; settings: EMSA: 3 nM DNA, 20 mM Tris-HCl pH 8.8, 10 mM NaCl, 5 mM MgCl2, 14 mM 2-mercaptoethanol, 0.1 mg/ml BSA, 5% glycerol, 40 C, 5 min; 1% agarose gel
[2] = target: chimeric Taq 1-2 (Thermus aquaticus / environmental DNA chimera) (UniProt P19821); assay: EMSA; settings: EMSA: 3 nM DNA, 20 mM Tris-HCl pH 8.8, 10 mM NaCl, 5 mM MgCl2, 14 mM 2-mercaptoethanol, 0.1 mg/ml BSA, 5% glycerol, 40 C, 5 min; 1% agarose gel
[3] = target: chimeric Taq 10-1 (Thermus aquaticus / environmental DNA chimera) (UniProt P19821); assay: EMSA; settings: EMSA: 3 nM DNA, 20 mM Tris-HCl pH 8.8, 10 mM NaCl, 5 mM MgCl2, 14 mM 2-mercaptoethanol, 0.1 mg/ml BSA, 5% glycerol, 40 C, 5 min; 1% agarose gel
[4] = target: chimeric Taq 12-1 (Thermus aquaticus / environmental DNA chimera) (UniProt P19821); assay: EMSA; settings: EMSA: 3 nM DNA, 20 mM Tris-HCl pH 8.8, 10 mM NaCl, 5 mM MgCl2, 14 mM 2-mercaptoethanol, 0.1 mg/ml BSA, 5% glycerol, 40 C, 5 min; 1% agarose gel
[5] = target: chimeric Taq 29-1 (Thermus aquaticus / environmental DNA chimera) (UniProt P19821); assay: EMSA; settings: EMSA: 3 nM DNA, 20 mM Tris-HCl pH 8.8, 10 mM NaCl, 5 mM MgCl2, 14 mM 2-mercaptoethanol, 0.1 mg/ml BSA, 5% glycerol, 40 C, 5 min; 1% agarose gel
[6] = target: chimeric Taq 30-1 (Thermus aquaticus / environmental DNA chimera) (UniProt P19821); assay: EMSA; settings: EMSA: 3 nM DNA, 20 mM Tris-HCl pH 8.8, 10 mM NaCl, 5 mM MgCl2, 14 mM 2-mercaptoethanol, 0.1 mg/ml BSA, 5% glycerol, 40 C, 5 min; 1% agarose gel
[7] = target: chimeric Taq 4-1 (Thermus aquaticus / environmental DNA chimera) (UniProt P19821); assay: EMSA; settings: EMSA: 3 nM DNA, 20 mM Tris-HCl pH 8.8, 10 mM NaCl, 5 mM MgCl2, 14 mM 2-mercaptoethanol, 0.1 mg/ml BSA, 5% glycerol, 40 C, 5 min; 1% agarose gel
[8] = target: chimeric Taq 4-2 (Thermus aquaticus / environmental DNA chimera) (UniProt P19821); assay: EMSA; settings: EMSA: 3 nM DNA, 20 mM Tris-HCl pH 8.8, 10 mM NaCl, 5 mM MgCl2, 14 mM 2-mercaptoethanol, 0.1 mg/ml BSA, 5% glycerol, 40 C, 5 min; 1% agarose gel
[9] = target: chimeric Taq 7-1 (Thermus aquaticus / environmental DNA chimera) (UniProt P19821); assay: EMSA; settings: EMSA: 3 nM DNA, 20 mM Tris-HCl pH 8.8, 10 mM NaCl, 5 mM MgCl2, 14 mM 2-mercaptoethanol, 0.1 mg/ml BSA, 5% glycerol, 40 C, 5 min; 1% agarose gel
[10] = target: chimeric Taq 7-2 (Thermus aquaticus / environmental DNA chimera) (UniProt P19821); assay: EMSA; settings: EMSA: 3 nM DNA, 20 mM Tris-HCl pH 8.8, 10 mM NaCl, 5 mM MgCl2, 14 mM 2-mercaptoethanol, 0.1 mg/ml BSA, 5% glycerol, 40 C, 5 min; 1% agarose gel
[11] = target: chimeric Taq 7-3 (Thermus aquaticus / environmental DNA chimera) (UniProt P19821); assay: EMSA; settings: EMSA: 3 nM DNA, 20 mM Tris-HCl pH 8.8, 10 mM NaCl, 5 mM MgCl2, 14 mM 2-mercaptoethanol, 0.1 mg/ml BSA, 5% glycerol, 40 C, 5 min; 1% agarose gel
[12] = target: chimeric Taq 8-1 (Thermus aquaticus / environmental DNA chimera) (UniProt P19821); assay: EMSA; settings: EMSA: 3 nM DNA, 20 mM Tris-HCl pH 8.8, 10 mM NaCl, 5 mM MgCl2, 14 mM 2-mercaptoethanol, 0.1 mg/ml BSA, 5% glycerol, 40 C, 5 min; 1% agarose gel
[13] = target: chimeric Taq 8-2 (Thermus aquaticus / environmental DNA chimera) (UniProt P19821); assay: EMSA; settings: EMSA: 3 nM DNA, 20 mM Tris-HCl pH 8.8, 10 mM NaCl, 5 mM MgCl2, 14 mM 2-mercaptoethanol, 0.1 mg/ml BSA, 5% glycerol, 40 C, 5 min; 1% agarose gel
[14] = target: Taq DNA polymerase WT (TaqEA) (Thermus aquaticus, UniProt P19821 1-832); assay: EMSA; 5 mM Mg2+; apparent Kd; EMSA: 3 nM DNA, 20 mM Tris-HCl pH 8.8, 10 mM NaCl, 5 mM MgCl2, 14 mM 2-mercaptoethanol, 0.1 mg/ml BSA, 5% glycerol, 40 C, 5 min; 1% agarose gel; settings: protein: recombinant; label: 32P on 27mer; primer-template; 27 bp duplex, 5' overhang 22 nt on the 49mer template
TaqHA = TaqHA (Thermus aquaticus, UniProt P19821 1-832, E742H); assay: as above; settings: protein: recombinant; label: 32P on 27mer; primer-template; 27 bp duplex, 5' overhang 22 nt on the 49mer template
TaqKK = TaqKK (Thermus aquaticus, UniProt P19821 1-832, E742K;A743K); assay: as above; settings: protein: recombinant; label: 32P on 27mer; primer-template; 27 bp duplex, 5' overhang 22 nt on the 49mer template
TaqHH = TaqHH (Thermus aquaticus, UniProt P19821 1-832, E742H;A743H); assay: as above; settings: protein: recombinant; label: 32P on 27mer; primer-template; 27 bp duplex, 5' overhang 22 nt on the 49mer template
TaqRA = TaqRA (Thermus aquaticus, UniProt P19821 1-832, E742R); assay: as above; settings: protein: recombinant; label: 32P on 27mer; primer-template; 27 bp duplex, 5' overhang 22 nt on the 49mer template
TaqER = TaqER (Thermus aquaticus, UniProt P19821 1-832, A743R); assay: as above; settings: protein: recombinant; label: 32P on 27mer; primer-template; 27 bp duplex, 5' overhang 22 nt on the 49mer template
TaqRK = TaqRK (Thermus aquaticus, UniProt P19821 1-832, E742R;A743K); assay: as above; settings: protein: recombinant; label: 32P on 27mer; primer-template; 27 bp duplex, 5' overhang 22 nt on the 49mer template
TaqAH = TaqAH (Thermus aquaticus, UniProt P19821 1-832, E742A;A743H); assay: as above; settings: protein: recombinant; label: 32P on 27mer; primer-template; 27 bp duplex, 5' overhang 22 nt on the 49mer template
TaqRR = TaqRR (Thermus aquaticus, UniProt P19821 1-832, E742R;A743R); assay: as above; settings: protein: recombinant; label: 32P on 27mer; primer-template; 27 bp duplex, 5' overhang 22 nt on the 49mer template
TaqKR = TaqKR (Thermus aquaticus, UniProt P19821 1-832, E742K;A743R); assay: as above; settings: protein: recombinant; label: 32P on 27mer; primer-template; 27 bp duplex, 5' overhang 22 nt on the 49mer template
TaqEH = TaqEH (Thermus aquaticus, UniProt P19821 1-832, A743H); assay: as above; settings: protein: recombinant; label: 32P on 27mer; primer-template; 27 bp duplex, 5' overhang 22 nt on the 49mer template
TaqAA = TaqAA (Thermus aquaticus, UniProt P19821 1-832, E742A); assay: as above; settings: protein: recombinant; label: 32P on 27mer; primer-template; 27 bp duplex, 5' overhang 22 nt on the 49mer template
TaqHK = TaqHK (Thermus aquaticus, UniProt P19821 1-832, E742H;A743K); assay: as above; settings: protein: recombinant; label: 32P on 27mer; primer-template; 27 bp duplex, 5' overhang 22 nt on the 49mer template
TaqQY = TaqQY (Thermus aquaticus, UniProt P19821 1-832, E742Q;A743Y); assay: as above; settings: protein: recombinant; label: 32P on 27mer; primer-template; 27 bp duplex, 5' overhang 22 nt on the 49mer template
TaqAR = TaqAR (Thermus aquaticus, UniProt P19821 1-832, E742A;A743R); assay: as above; settings: protein: recombinant; label: 32P on 27mer; primer-template; 27 bp duplex, 5' overhang 22 nt on the 49mer template
TaqAR, sequence (P19821 whole entry E742A/A743R): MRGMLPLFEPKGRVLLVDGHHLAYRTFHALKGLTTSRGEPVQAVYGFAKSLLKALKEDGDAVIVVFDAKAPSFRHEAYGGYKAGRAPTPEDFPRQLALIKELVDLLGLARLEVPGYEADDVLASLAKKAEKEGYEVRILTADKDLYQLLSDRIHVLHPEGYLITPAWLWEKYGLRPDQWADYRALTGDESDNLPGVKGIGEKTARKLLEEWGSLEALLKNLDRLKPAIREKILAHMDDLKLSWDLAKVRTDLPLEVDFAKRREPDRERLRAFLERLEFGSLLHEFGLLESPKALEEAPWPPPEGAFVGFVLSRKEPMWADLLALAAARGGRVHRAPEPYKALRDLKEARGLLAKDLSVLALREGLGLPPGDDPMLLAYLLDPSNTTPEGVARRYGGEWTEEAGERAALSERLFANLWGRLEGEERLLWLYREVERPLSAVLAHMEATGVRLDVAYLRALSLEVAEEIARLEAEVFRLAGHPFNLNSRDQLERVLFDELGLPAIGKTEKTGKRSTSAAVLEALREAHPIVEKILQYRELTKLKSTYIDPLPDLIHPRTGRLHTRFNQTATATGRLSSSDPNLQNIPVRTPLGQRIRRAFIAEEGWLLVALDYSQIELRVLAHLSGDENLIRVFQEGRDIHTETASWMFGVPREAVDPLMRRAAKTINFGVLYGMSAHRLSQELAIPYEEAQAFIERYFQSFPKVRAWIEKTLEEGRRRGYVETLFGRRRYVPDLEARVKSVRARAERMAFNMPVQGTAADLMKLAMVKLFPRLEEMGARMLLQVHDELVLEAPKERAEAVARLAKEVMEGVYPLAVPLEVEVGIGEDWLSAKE

TaqEH, sequence (P19821 whole entry A743H): as the sequence (P19821 whole entry E742A/A743R) above, with A742E, R743H counted along it
TaqAH, sequence (P19821 whole entry E742A/A743H): as the sequence (P19821 whole entry E742A/A743R) above, with R743H counted along it
TaqRR, sequence (P19821 whole entry E742R/A743R): as the sequence (P19821 whole entry E742A/A743R) above, with A742R counted along it
TaqRK, sequence (P19821 whole entry E742R/A743K): as the sequence (P19821 whole entry E742A/A743R) above, with A742R, R743K counted along it
TaqKR, sequence (P19821 whole entry E742K/A743R): as the sequence (P19821 whole entry E742A/A743R) above, with A742K counted along it
chimeric Taq 12-1 (Thermus aquaticus / environmental DNA chimera), sequence (P19821 whole entry, change not shown): as the sequence (P19821 whole entry E742A/A743R) above, with A742E, R743A counted along it
chimeric Taq 30-1 (Thermus aquaticus / environmental DNA chimera), sequence (P19821 whole entry, change not shown): as the sequence (P19821 whole entry E742A/A743R) above, with A742E, R743A counted along it
chimeric Taq 8-1 (Thermus aquaticus / environmental DNA chimera), sequence (P19821 whole entry, change not shown): as the sequence (P19821 whole entry E742A/A743R) above, with A742E, R743A counted along it
chimeric Taq 1-2 (Thermus aquaticus / environmental DNA chimera), sequence (P19821 whole entry, change not shown): as the sequence (P19821 whole entry E742A/A743R) above, with A742E, R743A counted along it
Taq DNA polymerase WT (TaqEA), sequence (P19821 whole entry): as the sequence (P19821 whole entry E742A/A743R) above, with A742E, R743A counted along it
chimeric Taq 7-2 (Thermus aquaticus / environmental DNA chimera), sequence (P19821 whole entry, change not shown): as the sequence (P19821 whole entry E742A/A743R) above, with A742E, R743A counted along it
chimeric Taq 4-1 (Thermus aquaticus / environmental DNA chimera), sequence (P19821 whole entry, change not shown): as the sequence (P19821 whole entry E742A/A743R) above, with A742E, R743A counted along it
chimeric Taq 7-3 (Thermus aquaticus / environmental DNA chimera), sequence (P19821 whole entry, change not shown): as the sequence (P19821 whole entry E742A/A743R) above, with A742E, R743A counted along it
chimeric Taq 4-2 (Thermus aquaticus / environmental DNA chimera), sequence (P19821 whole entry, change not shown): as the sequence (P19821 whole entry E742A/A743R) above, with A742E, R743A counted along it
chimeric Taq 8-2 (Thermus aquaticus / environmental DNA chimera), sequence (P19821 whole entry, change not shown): as the sequence (P19821 whole entry E742A/A743R) above, with A742E, R743A counted along it
chimeric Taq 29-1 (Thermus aquaticus / environmental DNA chimera), sequence (P19821 whole entry, change not shown): as the sequence (P19821 whole entry E742A/A743R) above, with A742E, R743A counted along it
chimeric Taq 10-1 (Thermus aquaticus / environmental DNA chimera), sequence (P19821 whole entry, change not shown): as the sequence (P19821 whole entry E742A/A743R) above, with A742E, R743A counted along it
chimeric Taq 7-1 (Thermus aquaticus / environmental DNA chimera), sequence (P19821 whole entry, change not shown): as the sequence (P19821 whole entry E742A/A743R) above, with A742E, R743A counted along it
chimeric Taq 1-1 (Thermus aquaticus / environmental DNA chimera), sequence (P19821 whole entry, change not shown): as the sequence (P19821 whole entry E742A/A743R) above, with A742E, R743A counted along it
TaqKK, sequence (P19821 whole entry E742K/A743K): as the sequence (P19821 whole entry E742A/A743R) above, with A742K, R743K counted along it
TaqRA, sequence (P19821 whole entry E742R): as the sequence (P19821 whole entry E742A/A743R) above, with A742R, R743A counted along it
TaqHH, sequence (P19821 whole entry E742H/A743H): as the sequence (P19821 whole entry E742A/A743R) above, with A742H, R743H counted along it
TaqHK, sequence (P19821 whole entry E742H/A743K): as the sequence (P19821 whole entry E742A/A743R) above, with A742H, R743K counted along it
TaqQY, sequence (P19821 whole entry E742Q/A743Y): as the sequence (P19821 whole entry E742A/A743R) above, with A742Q, R743Y counted along it
TaqAA, sequence (P19821 whole entry E742A): as the sequence (P19821 whole entry E742A/A743R) above, with R743A counted along it
TaqER, sequence (P19821 whole entry A743R): as the sequence (P19821 whole entry E742A/A743R) above, with A742E counted along it
TaqHA, sequence (P19821 whole entry E742H): as the sequence (P19821 whole entry E742A/A743R) above, with A742H, R743A counted along it

AGCTATGACCATGATTACGAATTGCTT / AGCTACCATGCCTGCACGAATTAAGCAATTCGTAATCATGGTCATAGCT [primed DNA (27mer/49mer)]
Kd [1]: 6 nM | Kd [2]: 5 nM | Kd [3]: 4 nM | Kd [4]: 7 nM | Kd [5]: 10 nM | Kd [6]: 8 nM | Kd [7]: 4 nM | Kd [8]: 4 nM | Kd [9]: 10 nM | Kd [10]: 5 nM | Kd [11]: 4 nM | Kd [12]: 10 nM | Kd [13]: 20 nM

B1: primed DNA (27mer/49mer) (dsDNA)
DNA 1: AGCTATGACCATGATTACGAATTGCTT
DNA 2: AGCTACCATGCCTGCACGAATTAAGCAATTCGTAATCATGGTCATAGCT
Kd [14]: 400 nM | Kd (TaqHA): 6 nM | Kd (TaqKK): 10 nM | Kd (TaqHH): 6 nM | Kd (TaqRA): 8 nM | Kd (TaqER): 8 nM | Kd (TaqRK): 10 nM | Kd (TaqAH): 6 nM | Kd (TaqRR): 9 nM | Kd (TaqKR): 10 nM | Kd (TaqEH): 6 nM | Kd (TaqAA): 9 nM | Kd (TaqHK): 6 nM | Kd (TaqQY): 10 nM | Kd (TaqAR): 8 nM
